Here are results for 3 molecules from patent US20090083877A1, “Transcription Factors, DNA and Methods for Introduction of Value-Added Seed Traits and Stress Tolerance” (priority 2002, published 2009).

The subject of test [1] is ABA-inducible wheat Em promoter. Description: Em-GUS reporter transactivation in transiently transformed rice protoplasts. The test is classed as cell-based, Oryza sativa. To be noted: for Transactivation of Em-GUS expression by overexpressed effector: effector overexpressed alone, average of four replicate transformations. On the procedure:
Embryonic rice (Oryza sativa) callus cultures (Radon 6 from the International Rice Research Institute, Los Bafios, Phillipines) were obtained. Embryonic rice callus cultures were grown as suspensions in liquid culture as well as on phytagel plates containing MS medium supplemented with 2.0 mg/L 2,4-D. Cultures were propagated and digested for making protoplasts as previously described except that 10 mM HEPES (Sigma, St. Louis, Mo., USA), pH 5.6, was substituted for phosphate in the Krens'F medium, and 2% (weight/volume; w/v) cellulase YC, 0.35% (w/v) macerozyme, and 0.1% (w/v) pectolyase Y23 were used for overnight digestion (Karlan Research Products, Santa Rosa, CA, USA). Protoplasts were transformed with various mixtures of DNA reporter and effector constructs using polyethylene glycol precipitation. Transformed protoplasts were incubated with or without 100 μM ABA for 16 h in the dark in Krens solution before quantifying β-glucuronidase (GUS) and luciferase (LUC) reporter enzyme activities as previously described. ABA was dissolved and stored in absolute ethanol at −20° C. as a 0.1 M stock solution. Prior to use, required dilutions of ABA were made in Krens solution, and control samples received the same volume of solvent as in ABA treatments.
(§1) Plasmid pBM207 contains the wheat (Triticum aestivum) Early Methionine-labeled (Em) promoter driving the expression of GUS, encoded by uida from Escherichia coli. Plasmid pDH359 contains ABI5 cDNA driven by Ubiquitin promoter. Plasmid pCR349.13S contains the 35S promoter driving the VP1 sense cDNA. Plasmid pDirect2.6 contains the Ubi promoter in a reverse orientation and was used as control construct to balance the total amount of input plasmid DNA between various treatments. Plasmid pAHC 18 contains the Ubi promoter driving firefly (Photinus pyralis) LUC cDNA and was included in transformations to provide an internal reference for non-ABA-inducible transient transcription in reporter enzyme assays. ABF1-ABF4, AREB3, and DPBF4 were amplified by PCR using gene-specific primers from an Arabidopsis cDNA library (Minet et al. Plant J. 2:417 (1992)) and were cloned into plasmid pDH349 (Gampala et al. J. Biol. Chem. 277: 1689 (2002)) containing the maize Ubiquitin promoter and nopaline synthase 3′ termination signals.
Simultaneously, it has been shown that ABF2, ABF3 and ABF4 overexpression in transgenic Arabidopsis results in ABA hypersensitivity and other ABA-associated phenotypes such as altered ABA-inducible gene expression and glucose signaling, reduced transpiration, and enhanced drought tolerance. The functional roles of the ABI5-like family members ABF1-ABF4 in regulation of ABA-inducible gene expression in rice protoplasts were tested and the results are shown in FIG. 1. […] Protoplasts were transformed with Em-GUS and a “dummy” effector construct (pD2.6 containing only the Ubiquitin promoter used to drive effector expression) or co-transformed with a Ubi-ABF construct and treated with or without 100 μM ABA. The values shown in FIG. 1A are the average (±S.E.M.) of four replicate transformations.
Rice protoplasts were transformed with either Em-GUS alone or in pairwise combinations of Ubi-ABF3, Ubi-ABI5, or 35S-VP1. The values in FIG. 1B are the average (±S.E.M.) of four replicate transformations. ABF3 is a related member of the ABI5-family of bZIP transcription factors.

For test [2] the test system is unchanged. The test can be described thus: Em-GUS reporter transactivation in transiently transformed maize mesophyll protoplasts. The test is classed as cell-based. To be noted: for Transactivation of Em-GUS expression by overexpressed effector: maize mesophyll protoplasts, effector overexpressed alone. On the procedure: Plant Materials. Maize mesophyll protoplasts were isolated from 20-hr illuminated leaves of 10 day old maize seedlings that had been kept in the dark at 25° C. The middle part of the second leaves (about 6 cm in length) was cut into 0.5 mm strips with a razor blade and digested in an enzyme solution containing 1% (w/v) cellulose RS, 0.1% (w/v) macerozyme R10 (Yakult Honsha, Nishinomiya, Japan), 0.6 M mannitol, 10 mM MES (pH 5.7), 1 mM CaCl2, 1 mM MgCl2, 10 mM β-mercaptoethanol, and 0.1% BSA (w/v) for 3 hr at room temperature. Protoplasts were released by shaking on a rotary shaker at 80 rpm for 10 min and were filtered through a 70 μm nylon filter. Protoplasts were collected by centrifugation at 100 g for 2 min, washed in cold 0.6 M mannitol solution, centrifuged, and resuspended at 2×10^6/mL in cold 0.6 M mannitol. Electroporation conditions were 400 V/cm, 200 μF, 10 msec, and two pulses with a Biorad GenePulser apparatus. Each sample contained 5×10^4 protoplasts and about 50 μg DNA in 0.3 mL of 0.6 M mannitol and 20 mM KCl.
as §1
The values in FIG. 2 are the average (±S.E.M.) of four replicate transformations.
To test the involvement of ABI3-Like B3 domain transcription factors in ABA signaling, ABA-inducible reporter gene transactivation by the B3 domain-containing RAV2 was assayed in maize mesophyll protoplasts transiently co-transformed with a full length cDNA under transcriptional control of the Ubiquitin promoter. Activation of Em-GUS reporter gene expression by RAV2, relative to non-ABA inducible Ubi-LUC reference reporter as internal control, and functional interactions of RAV2 with VP1, ABI5, and the ABI5-Like ABF3 were compared in protoplasts treated with or without 100 uM ABA (see FIG. 3).

“Also recorded” adds a separate entry of the source.

B1: ABF3: Arabidopsis ABI5-like ABA-Response Element-Binding Factor, bZIP, At4g34000 (protein)
chain: MGSRLNFKSFVDGVSEQQPTVGTSLPLTRQNSVFSLTFDEFQNSWGGGIGKDFGSMNMDELLKNIWTAEESHSMMGNNTSYTNISNGNSGNTVINGGGNNIGGLAVGVGGESGGFFTGGSLQRQGSLTLPRTISQKRVDDVWKELMKEDDIGNGVVNGGTSGIPQRQQTLGEMTLEEFLVRAGVVREEPQPVESVTNFNGGFYGFGSNGGLGTASNGFVANQPQDLSGNGVAVRQDLLTAQTQPLQMQQPQMVQQPQMVQQPQQLIQTQERPFPKQTTIAFSNTVDVVNRSQPATQCQEVKPSILGIHNHPMNNNLLQAVDFKTGVTVAAVSPGSQMSPDLTPKSALDASLSPVPYMFGRVRKTGAVLEKVIERRQKRMIKNRESAARSRARKQAYTMELEAEIAQLKELNEELQKKQVEIMEKQKNQLLEPLRQPWGMGCKRQCLRRTLTGPW
As for B1, the “Synergy with exogenous ABA on Em-GUS expression” value (from here on “Synergy with exogenous ABA”) in test [1] (100 μM ABA, 16 h) is recorded as “strong; also recorded: acted in synergy with ABA; also recorded: interacts synergistically”. The “Synergistic activity with VP1 relative to that of ABI5 with VP1” value in test [1] (co-expressed with VP1) is “about twice the synergistic activity seen between ABI5 and VP1”. Moreover, the “Transactivation of Em-GUS expression by overexpressed effector” value (shortened to “Transactivation of Em-GUS expression”) in test [1] is on record as “sufficient for transactivation of the Em promoter; also recorded: transactivated the Em promoter; also recorded: sufficient to transactivate ABA-inducible Em-GUS expression”. Moreover, the “Synergy with co-expressed VP1 on Em-GUS expression” value in test [1] (pairwise co-transformation with 35S-VP1) was “synergized with each other and with ABA; also recorded: interacts synergistically”. In addition, in test [1] (pairwise co-transformation with Ubi-ABI5), the “Synergy with co-expressed ABI5 on Em-GUS expression” value is “did not result in synergy”. Further, in test [2], the “Synergy with co-transformed VP1 on Em-GUS expression” value (“Synergy with co-transformed VP1” below) is reported as “can synergize with co-transformed VP1”, the “Synergy with exogenous ABA” value is on record as “synergize with exogenous ABA” and the “Transactivation of Em-GUS expression” value is recorded as “sufficient for transactivation of the Em promoter; also recorded: sufficient for specific Em-GUS transactivation; also recorded: sufficient to transactivate Em-GUS expression”.

B2: ABF2: Arabidopsis ABI5-like ABA-Response Element-Binding Factor, bZIP, At1g45249 (protein, listed as Arabidopsis thaliana)
chain: MDGSMNLGNEPPGDGGGGGGLTRQGSIYSLTFDEFQSSVGKDFGSMNMDELLKNIWSAEETQAMASGVVPVLGGGQEGLQLQRQGSLTLPRTLSQKTVDQVWKDLSKVGSSGVGGSNLSQVAQAQSQSQSQRQQTLGEVTLEEFLVRAGVVREEAQVAARAQIAENNKGGYFGNDANTGFSVEFQQPSPRVVAAGVMGNLGAETANSLQVQGSSLPLNVNGARTTYQQSQQQQPIMPKQPGFGYGTQMGQLNSPGIRGGGLVGLGDQSLTNNVGFVQGASAAIPGALGVGAVSPVTPLSSEGIGKSNGDSSSLSPSPYMFNGGVRGRKSGTVEKVVERRQRRMIKNRESAARSRARKQAYTVELEAEVAKLKEENDELQRKQARIMEMQKNQETEMRNLLQGGPKKKLRRTESGPW
With B2, the “Transactivation of Em-GUS expression” value in test [1] is given as “no effect on Em-GUS expression”. For the same molecule, in test [2], the “Synergy with co-transformed VP1” value is recorded as “not”; the “Synergy with exogenous ABA” value was “lower levels of ABA synergy compared to ABF3 and ABF4”.

B3: ABF4: Arabidopsis ABI5-like ABA-Response Element-Binding Factor, bZIP, At3g19290 (protein, listed as Arabidopsis thaliana)
chain: MGTHINFNNLGGGGHPGGEGSSNQMKPTGSVMPLARQSSVYSLTFDELQNTLGGPGKDFGSMNMDELLKSIWTAEEAQAMAMTSAPAATAVAQPGAGIPPPGGNLQRQGSLTLPRTISQKTVDEVWKCLITKDGNMEGSSGGGGESNVPPGRQQTLGEMTLEEFLFRAGVVREDNCVQQMGQVNGNNNNGFYGNSTAAGGLGFGFGQPNQNSITFNGTNDSMILNQPPGLGLKMGGTMQQQQQQQQLLQQQQQQMQQLNQPHPQQRLPQTIFPKQANVAFSAPVNITNKGFAGAANNSINNNNGLASYGGTGVTVAATSPGTSSAENNSLSPVPYVLNRGRRSNTGLEKVIERRQRRMIKNRESAARSRARKQAYTLELEAEIEKLKKTNQELQKKQAEMVEMQKNELKETSKRPWGSKRQCLRRTLTGPW
For B3, in test [1], the “Transactivation of Em-GUS expression” value is reported as “sufficient for transactivation of the Em promoter; also recorded: sufficient to transactivate ABA-inducible Em-GUS expression”. Besides, in test [2], the “Synergy with co-transformed VP1” value is “no functional interactions with VP1 and not”; the “Synergy with exogenous ABA” value is “synergize with exogenous ABA”; the “Transactivation of Em-GUS expression” value is given as “sufficient for transactivation of the Em promoter; also recorded: sufficient to transactivate Em-GUS expression”.
